Paper doi:10.1101/2023.01.25.525455 (bioRxiv, 2023)
Several values for one entry are separate records, joined by “and”; a condition that tells them apart may be missing. Identical values can stand only once.

B1: CCDC22-CCDC93 CC1-CC2 complex (CCDC22(325-485) + CCDC93(310-488)), wild type (complex)
chain 1: VTWAAQEQELESLREQLEGVNRSIEEVEADMKTLGVSFVQAESECRHSKLSTAEREQALRLKSRAVELLPDGTANLAKLQLVVENSAQRVIHLAGQWEKHRVPLLAEYRHLRKLQDCRELESSRRLAEIQELHQSVRAAAEEARRKEEVYKQLMSELETLP
chain 2: GTSQLHRRKVISLNKQIAQKTKHLEELRASHTSLQARYNEAKKTLTELKTYSEKLDKEQAALEKIESKADPSILQNLRALVAMNENLKSQEQEFKAHCREEMTRLQQEIENLKAERAPRGDEKTLSSGEPPGTLTSAMTHDEDLDRRYNMEKEKLYKIRLLQARRNREIAILHRKIDEV

What was measured:
recombinant DENND10 = recombinant DENND10 (human, UniProt Q8TCE6 1-357); test: ITC
purified VPS29 = purified VPS29 (human, UniProt Q9UBQ0 1-182); test: ITC

recombinant DENND10, sequence (Q8TCE6 whole entry): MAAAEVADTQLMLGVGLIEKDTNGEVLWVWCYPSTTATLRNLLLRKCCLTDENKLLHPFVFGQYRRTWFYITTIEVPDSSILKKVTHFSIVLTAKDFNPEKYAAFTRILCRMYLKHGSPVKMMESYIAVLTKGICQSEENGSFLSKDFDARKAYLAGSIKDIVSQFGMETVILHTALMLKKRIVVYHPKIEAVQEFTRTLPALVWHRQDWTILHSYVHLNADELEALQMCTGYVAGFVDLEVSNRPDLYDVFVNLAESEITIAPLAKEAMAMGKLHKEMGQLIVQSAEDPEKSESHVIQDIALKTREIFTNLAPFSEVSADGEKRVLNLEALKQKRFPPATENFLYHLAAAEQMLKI

Binder	Kd (recombinant DENND10)	Kd (purified VPS29)
B1	28 ± 6 nM	
EFASCRLEAVPLEFGDYHPLKPI [synthetic VPS35L peptide (residues Glu16-Ile38)]		1800 nM and 1870 nM
EFGDYHPLKP [VPS35L^28-37 peptide]		6800 nM
